In PMC3662644, “Genome wide analysis of the complete GlnR nitrogen-response regulon in Mycobacterium smegmatis”:

T1: His-GlnR (Mycobacterium smegmatis (mc2 155?)) (UniProt A0R4C4)
T1 sequence: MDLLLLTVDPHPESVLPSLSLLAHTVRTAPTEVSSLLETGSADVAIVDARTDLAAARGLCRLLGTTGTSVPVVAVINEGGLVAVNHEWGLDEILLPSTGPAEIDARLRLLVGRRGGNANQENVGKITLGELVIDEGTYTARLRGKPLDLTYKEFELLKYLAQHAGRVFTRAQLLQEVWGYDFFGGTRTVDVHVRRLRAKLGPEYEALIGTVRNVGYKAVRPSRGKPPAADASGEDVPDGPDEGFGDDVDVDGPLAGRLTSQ

T2: His-GlnR (Mycobacterium smegmatis, UniProt A0R4C4 1-261)
T2 sequence: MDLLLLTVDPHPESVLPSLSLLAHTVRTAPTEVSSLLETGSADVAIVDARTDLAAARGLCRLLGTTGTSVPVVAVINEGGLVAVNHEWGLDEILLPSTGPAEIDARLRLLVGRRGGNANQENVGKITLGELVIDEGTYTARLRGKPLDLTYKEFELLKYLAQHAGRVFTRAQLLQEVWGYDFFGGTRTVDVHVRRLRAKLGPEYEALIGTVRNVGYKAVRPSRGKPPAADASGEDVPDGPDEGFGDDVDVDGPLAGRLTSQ


Target: T1, His-GlnR (Mycobacterium smegmatis (mc2 155?))
Assay: EMSA
Settings: EMSA: 0.4 ng DIG-labelled DNA, 0-0.9 ug His-GlnR, 0.5 ug poly d(A-T), 25 mM Hepes pH 7.9, 150 mM NaCl, 2.5 mM MgCl2, 37 C, 15 min

Molecule	binding
AACGGTGTGCTTCCTCCGCTGTAGGTGGATCACCGCGTGAAGCGGGTGACCGGTGCAGGGTCGGCGCAACTTACTGCGCTTGGAAAATGCTCGCGCAGGAACGTTTCGGTGGATCCCGTCGGCAATGTCGGTGACGTTAACTCTGCACGGCCCCGCGTTACGTTGTGGTGACCTGACGCAACGGATTTCGTTGTGTGTCCGGTAG (double strand) [peak 22 MSMEG2526 promoter]	binds
AAGCCGGATCCAGACGTGTGTTTCCGCGGCATCGGGCGACTGTGTGCTCGATGTTTAGACTTTACTGCTTGGTAACCTACGGAGCCGTAGGTTACGGTAGCGTAGGTAGACGAAAGGAGGGTTGCCAATGGCTGTTACCGACGTCCCGGCGTTCGCGCATCTGACCGAAGCCGATATCGAGAACCTGGGTATCGAGC (double strand) [peak 13 MSMEG1886 promoter]	binds
AGCTTGCCTACGAGCTCGAGGAGGCGCGGCCCTGGGCGCGCATACAAGATGTCACCGCGACCAAGCAGCCGCGTAAGCGGGCCGCGAAGAAGGCCACGAAAACCACGGAGTAGGGCACAAACCGGCGTGGCGCGTGACATGACCCCGTAACCCGGGCCGTGTCCTGTTAACGAACTCGACACCGCGAACGGCTGCGGGTGAAACATCGGGCTCGCAGCATCCCTCATT (double strand) [peak 21 MSMEG2522 promoter]	binds
GACGCGTCCATTCGGTTGTCCTCCCCGTTGTCGACGGGCCCGAAGCTACCCACGCCATGTTGCGACGACGTTGCGGTTGCGTTCGAACCCGTTGACATCAGCCAGAATTGACGCACGCGTCGGACTACCAGCGGTAGTCGAGGAACTTCCCGTCGAAGGTCACCACCACCCGGTCCCCGTCTGGATCGGGACGACGCTGGATGTCCACCTTGAAGTTGATGGCGCTCATG (double strand) [peak 42 MSMEG5358 promoter]	binds
GAGTGTTTGCGGGGCGTTACAGCCGGCGTTGGCTGTGCAACGACCTGTGCTTTGTCGGCGGGAAACATGAGCGTAACAGTGATCGGGATTGCGTTCACTTTCCGGAAACGCAACGGCAGCACCGGCGAAACGCCGGCAACAGAATCTCATCGGGAGGCCGATCCGTCGGCGCACTTCCCAAGGAGGTTCACACAAA (double strand)	binds
GCGCTGCTGGTCATGGGTTTTCTCTCTGGCTAGGGGCGCTGCCGCCAGCTCTTACCTGTCAGATGACAGATAACAATGGGCGCGTGTCCTCGGCGTCACCCGAATGTTTCGTTCATGTAGCCGTCGGTAAGCATTCGGTTGCAGAACCCTCACCGCCCGTGGGCCTGTCACAATCGCCGGTATGCCCGCCCCCGACCTCGTGCAGCGCCACATCGACG (double strand) [peak 17 MSMEG2184 promoter]	binds
GTACGGGTCGCGCACCTTGTCGGTGAGGATGAGGATCGCATCGACGATGCCCCAGATGAAGGCACCGATGCCACACGTCACCAGGCCCACGATCAGCTGCGCGATGCCGAGCCCGGTCTGCCCCAGATAGATCCGCCCGAACCCGACGAAACCGACCAGGCCGATCAACTGCAACAGGC (double strand) [MSMEG3224 promoter (negative control)]	no binding

Target: T2, His-GlnR
Assay: EMSA; EMSA: 0.4 ng DIG-labelled DNA, 0-0.9 ug His-GlnR, 0.5 ug poly d(A-T), 25 mM Hepes pH 7.9, 150 mM NaCl, 2.5 mM MgCl2, 37 C, 15 min
Settings: protein: recombinant; tags: N-terminal His6 (pET28b); chain copies: 2; label: DIG 3'-end; blunt

Molecule	binding result
Peak 2 GG (dsDNA) DNA 1: GCAATCGCGGGGTAGGGCCGTGGAAGGAGAGCCTGCCT DNA 2: AGGCAGGCTCTCCTTCCACGGCCCTACCCCGCGATTGC	no binding
Peak 2 G (dsDNA) DNA 1: GCAATCGCGGGGTAGCGCCGTGGAAGCAGAGCCTGCCT DNA 2: AGGCAGGCTCTGCTTCCACGGCGCTACCCCGCGATTGC	no binding
Peak 24 GG (dsDNA) DNA 1: TCATGTCGAGGTTAGGTTGTTCGTCGGACACAGACATT DNA 2: AATGTCTGTGTCCGACGAACAACCTAACCTCGACATGA	no binding
Peak 24 G (dsDNA) DNA 1: TCATGTCGAGGTTAGTTTGTTCGTCGCACACAGACATT DNA 2: AATGTCTGTGTGCGACGAACAAACTAACCTCGACATGA	no binding
